In patent publication US20030220250A1:

Biological target: Tie-2 tyrosine kinase receptor on HUVECs (human) (UniProt Q02763)
Assay: cell-based or functional assay

Chain of UniProt Q02763 (Q02763 23-1124): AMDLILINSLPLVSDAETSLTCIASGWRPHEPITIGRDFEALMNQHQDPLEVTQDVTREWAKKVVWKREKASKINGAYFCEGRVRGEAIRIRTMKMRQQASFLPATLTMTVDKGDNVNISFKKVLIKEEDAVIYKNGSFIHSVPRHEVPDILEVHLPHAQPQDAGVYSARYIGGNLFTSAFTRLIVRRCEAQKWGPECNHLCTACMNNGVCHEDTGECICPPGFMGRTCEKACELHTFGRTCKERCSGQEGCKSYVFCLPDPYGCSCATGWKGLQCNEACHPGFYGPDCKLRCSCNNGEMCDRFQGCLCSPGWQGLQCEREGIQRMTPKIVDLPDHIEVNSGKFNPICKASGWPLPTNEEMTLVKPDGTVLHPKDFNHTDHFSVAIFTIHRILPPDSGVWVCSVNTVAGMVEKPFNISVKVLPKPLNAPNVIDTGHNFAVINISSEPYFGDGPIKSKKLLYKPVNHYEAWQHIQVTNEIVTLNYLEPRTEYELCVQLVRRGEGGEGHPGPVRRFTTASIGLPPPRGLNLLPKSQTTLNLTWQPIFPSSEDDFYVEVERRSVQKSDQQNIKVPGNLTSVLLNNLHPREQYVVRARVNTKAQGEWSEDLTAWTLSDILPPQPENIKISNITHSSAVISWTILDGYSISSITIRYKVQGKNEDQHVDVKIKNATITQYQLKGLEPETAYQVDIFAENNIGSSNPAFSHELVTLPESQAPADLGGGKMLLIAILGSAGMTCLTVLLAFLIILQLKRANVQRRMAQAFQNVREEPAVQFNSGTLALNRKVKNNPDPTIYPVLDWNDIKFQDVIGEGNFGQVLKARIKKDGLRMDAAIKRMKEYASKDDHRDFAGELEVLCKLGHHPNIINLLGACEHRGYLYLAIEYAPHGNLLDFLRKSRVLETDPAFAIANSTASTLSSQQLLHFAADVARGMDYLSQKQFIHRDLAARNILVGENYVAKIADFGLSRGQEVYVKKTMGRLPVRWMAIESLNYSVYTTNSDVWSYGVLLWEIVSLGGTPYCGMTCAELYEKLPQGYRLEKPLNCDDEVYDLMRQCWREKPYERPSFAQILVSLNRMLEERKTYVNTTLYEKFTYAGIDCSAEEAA

“Angiopoietin-1 secreted by HT29 human colon cancer cells stably transfected with full-length Ang-1 cDNA in pcDNA3.1 (from UniProt Q15389 16-498) (ligand)” gave a Tie-2 phosphorylation in HUVECs after 48 h transwell co-culture (Tie-2 immunoprecipitation, anti-phosphotyrosine Western blot, densitometry), versus co-culture with pcDNA-transfected HT29 cells of 2 fold.
